Target: T1, r-YycF (His-GB1-YycF) (Staphylococcus epidermidis (1457?)) (UniProt Q8CQK0)
T1 sequence: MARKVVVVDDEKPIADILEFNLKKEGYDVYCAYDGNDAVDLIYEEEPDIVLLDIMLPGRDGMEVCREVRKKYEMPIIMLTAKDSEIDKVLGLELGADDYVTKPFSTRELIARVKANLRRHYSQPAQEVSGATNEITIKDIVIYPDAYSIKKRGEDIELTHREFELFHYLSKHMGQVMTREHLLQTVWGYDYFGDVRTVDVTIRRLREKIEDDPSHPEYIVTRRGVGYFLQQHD
Assay: EMSA
Settings: EMSA: 20 nM DNA, 10 mM Tris pH 8.0, 25 mM KCl, 1 mM EDTA, 2.5 mM MgCl2, 5% glycerol, 37 C 30 min; footprinting: 200 ng probe, binding at 30 C 30 min, DNase I …

| Sequence | binding |
| --- | --- |
| TTACAAACCCCGTCATATCTAGGACTAACAGACCTCAATTATATAAATAAGTAATTTTTTTTGAACATACTCTTGTAAATATTGTGTAATAAACTAAAATTATTGGTAAGCCCTACATTTGTAGTATTAGGAGGTCAAAAAAAGTGTCAAAATTTAAGTCTTTGCTTCTATTATTTGGCA (double strand) [qoxB promoter 180 bp] | binds |
| CACATTGCTATGTTAATTATTATCAAAAAGAATTTTCAGTAATTTTACATTCATGTAACAGTGTTTGTGTTGCTCAAAATAAAATACTTTAAAAAAGCTGAGCGTATCATTTCTATTCATATTACATAAATTAATTGGGTTAAATGAGATTGTGTAACAATATTAGCAAAAAATTACAAATCAATAACAATGCACACAAACATCAATTTTTCTGTTAGAGTATGGCTTGTCG (double strand) [ssaA1 promoter 232 bp] | binds |
| CATCTATTCATTCAATCAAGTATTTTTATTCTTTATAAAACTATGTTAGCAAATTAAATTTTAATACACGTTTCATTAATTCAAATCCCATTCTTAACAAAAAATTTACAATAACTCTATTTTGATTTAATAAAAGATATGTAACATGAGAACTGTAAGAAATACATAT (double strand) [pstS promoter 167 bp] | binds |
| TGATTTTATCGCTCATCATTTTTAATAAGATTATGAGACACTTATGTAAAAATTTAATATCTAGTTTGTTAAGAATTTGTAAATAGAATTGTGGTTATGTAAATTTTGTGATATTTTCAAGTAGGGACAAAACTGGATGTTGGCGAACATCAATAAATGATTACTATATATTAAATTTACACAATTTTTACAATATAAGAATTGCTAGTTACTTTTTATAATAATTGTAAATCAGTTCCTCAACCACTT (double strand) [pitR promoter 249 bp] | binds |
| AAACTAAATTGACCATCACTTAACTAGGTGCTCTGTTAAACTTTTGTTATAAATTAAAGATAGAAGCAACCTATTCATATAAAGTGGTATCTCTTGACAATTTTACTCGTTTATAAGATGTTATAATTATGTAGTGTATAAGGAGGCATA (double strand) [rpsA promoter 150 bp] | binds |
| ATTATTCAAATGCTTGTAGTTTTATAAGTCGCATTATTATTTTTAAATATTTTCACTATTGAATGGATTTTGATCTTCTTTATAAAAAATAAATAAAAGGTTTAAAGTTAAATAAAATTTAAAAAATAATAATTTATACAAAATGATATTTTTTTTAATCATAAATAATATGTAAAGTATTGCGTTAAAATGTAAAAGAAGGTAACATTACATACTAGATACATAAAATATATGTATCTTACATTTAAAATTAAATACATGGGAGGTATAAT (double strand) [aap promoter] | binds |
| TTCTAAAATCTCCCCCTTATTCAATTTTCTAAAAATATATTACAGAAAAATTAAGTTAAAATTACAAATATTACTGTTTCAGTATAACAACATTCTATTGCAAATTGAAATACTTTCGATTAGCATATGCTTTACAACCTAACTAACGAAAGGTAGGTGAAAAA (double strand) [ica intergenic region (icaR-icaA)] | binds |
| ATAATGCTAGAGGGACTTTTTCTAAAGACAGTCTACTTATTCGACTATCTATTAAGGTGGTTCATGGTAAAATGATACTAGTTTCATAACAAATCATTTACAATTTTGAATTACATCTTTAGAAATACGAGTTAATTGTTTAAGATGTAGCGTGAGGTG (double strand) [arlR promoter 159 bp] | binds |
| ATGATAGGAATCATTACGGTTATTCATAAAAATTAGCATCCTATTTCATGTAATTGTAGTGTAAAAAATAGGCGTTTATTTTTATTTCAGTGTAACCTGCACG (double strand) [sceD promoter 103 bp] | binds |
| CACGATTTTAGTATTGTCTTCAAAAAATCTTAGTATTTGCTATATATTATGTTAATACATGTATATCTTAGCATTATTTAAATAAGGAATGAATTATTTAAAGGTGAGCGCAACAAAATTTTAAGTATATTTTAACACTACCTTAACAGTCTTTAATGAATGATTTTATCACTATCTAATAGAACGTG (double strand) [murE promoter 188 bp] | binds |

Reference: article PMC5405149
